{"source": "patent US20250270296A1", "binders": {"B1": {"name": "RBD-chAb-1 (antibody, V domains shown)", "VH": "EVQLQQSGPQLVRPGASMKISCKASGYSFTTYWMHWVKQRPGQGLQWIGMIDPSDSETRLNQKFKDKATLTVDKSSSTAYMQLSSPTSEDSAVYYCARDFDYDRTMDYWGQGTSVTVSS", "VL": "DIVMSQSPSSLAVSVGEKVTMSCKSSQSLLFSSSQKNYLAWYQQKAGQSPKLLIFWASTRESGVPDRFTGSGSGTDFTLTISSVKAEDLAIYYCKQYYKYPLTFGAGTKLDIK"}, "B2": {"name": "RBD-chAb-45 (antibody, V domains shown)", "VH": "EVQLQQSGPELVKPGASVKISCKTSGYTFTEYTIYWVKQSLGKSLEWIGGNNPNNDDTTYKQFFKGKATLTVDKSSSTAYMELRSLTSEDSAVYYCARDGYPYYYALDFWGQGTSVTVSS", "VL": "DILMTQSQKFMSTSVGDRVSVTCKSSQNVGTNVAWYQQKPGQSPKALIYSASYRYSGVPDHFTGSGSGTDFTLTISNVQSADLAEYFCQQYNNYPWTFGGGTKLDIK"}, "B3": {"name": "RBD-chAb-51 (antibody, V domains shown)", "VH": "B2 VH with V18A, I34M, L41H, N51I, D56G, K61N, F63T, Y103F, F109Y, T114I", "VL": "DIVMTQSQKFMSTSVGDRVSVTCKARQIVGTNVAWYQQKPGQSPKALIYSASYRYSGVPDRFTGSGSGTDFTLTITNVHSEDLAEFFCHQYNSYPWTFGGGTKLDIK"}, "B4": {"name": "RBD-chAb-28 (antibody, V domains shown)", "VH": "QVQLQQPGTELVMPGASVKMSCKASGYTFTDYYLHWMKQRPGQGLEWIGAIDSSDSYTDYNQNFKGKATLTVDESSSTAYMHLSSLTSEDSAVYYCARGKDAYDRRPWFAYWGQGTLVTVSA", "VL": "DIQMTQTTSSLSASLGDRVTISCSASQGIRYYLNWYQQKPDGTVKLLIYYTSNLHSGVPSRFSGSGSGTDYSLTISNLEPEDIATYYCQQYNKLPYTFGGGTKLDIK"}, "B5": {"name": "RBD-chAb-15 (antibody, V domains shown)", "VH": "EVQLEESGPGLVQPSQSLSITCTVSDFSLTTYGVHWVRQSPGKGLEWLGVIWSGGSTDYNAAFISRLSISKDNSKSQVFFKMNSLQTNDTAIYYCARMGDGYYVGAMDYWGQGTSVTVSS", "VL": "DIQLTQSPAILSVSPGERVSFSCRASQSIGTSIHWYQQRTNGSPRHLIKYASESISGIPSRFSGSGSGTDFTLTINGVESEDIADYYCQQGHNWPLTFGAGTKLDIK"}}, "experiment_in_all_cases": "cell-based or functional assay", "key": {"[1]": {"substrate": "S protein of SARS-CoV-2 variant B.1.351 (SA, Beta), full length, on pseudovirus (SARS-CoV-2), P0DTC2"}, "[2]": {"substrate": "S protein of SARS-CoV-2 variant B.1.1.7 (UK, Alpha), full length, on pseudovirus or authentic virus (SARS-CoV-2), P0DTC2"}, "[3]": {"substrate": "S protein of SARS-CoV-2 variant P1 (Brazil, Gamma), full length, on pseudovirus or authentic virus (SARS-CoV-2), P0DTC2"}}, "note": "Positions count from the first letter of the chain named."}
{"binder": "B1", "values": [{"measurement": "SARS-CoV2 pseudovirus IC50", "setting": "[1]", "value": 46.7, "unit": "ng/mL"}, {"measurement": "SARS-CoV2 pseudovirus IC50", "setting": "[2]", "value": 33.5, "unit": "ng/mL"}, {"measurement": "SARS-CoV2 pseudovirus IC50", "setting": "[3]", "value": 17.1, "unit": "ng/mL"}]}
{"binder": "B2", "values": [{"measurement": "SARS-CoV2 pseudovirus IC50", "setting": "[1]", "value": 2.68, "unit": "ng/mL"}, {"measurement": "PRNT50", "setting": "[2]", "value": 5.29, "unit": "ng/mL"}, {"measurement": "SARS-CoV2 pseudovirus IC50", "setting": "[2]", "value": 2.06, "unit": "ng/mL"}, {"measurement": "PRNT50", "setting": "[3]", "value": 3.26, "unit": "ng/mL"}, {"measurement": "SARS-CoV2 pseudovirus IC50", "setting": "[3]", "value": 0.76, "unit": "ng/mL"}]}
{"binder": "B3", "values": [{"measurement": "SARS-CoV2 pseudovirus IC50", "setting": "[1]", "value": 1.26, "unit": "ng/mL"}, {"measurement": "PRNT50", "setting": "[2]", "value": 6.39, "unit": "ng/mL"}, {"measurement": "SARS-CoV2 pseudovirus IC50", "setting": "[2]", "value": 3.07, "unit": "ng/mL"}, {"measurement": "PRNT50", "setting": "[3]", "value": 2.92, "unit": "ng/mL"}, {"measurement": "SARS-CoV2 pseudovirus IC50", "setting": "[3]", "value": 0.7, "unit": "ng/mL"}]}
{"binder": "B4", "values": [{"measurement": "SARS-CoV2 pseudovirus IC50", "setting": "[1]", "value": 16.5, "unit": "ng/mL"}, {"measurement": "PRNT50", "setting": "[2]", "value": 58.5, "unit": "ng/mL"}, {"measurement": "SARS-CoV2 pseudovirus IC50", "setting": "[2]", "value": 11.3, "unit": "ng/mL"}, {"measurement": "PRNT50", "setting": "[3]", "value": 58.3, "unit": "ng/mL"}, {"measurement": "SARS-CoV2 pseudovirus IC50", "setting": "[3]", "value": 4.18, "unit": "ng/mL"}]}
{"binder": "B5", "values": [{"measurement": "SARS-CoV2 pseudovirus IC50", "setting": "[1]", "value": 30.1, "unit": "ng/mL"}, {"measurement": "PRNT50", "setting": "[2]", "value": 58.1, "unit": "ng/mL"}, {"measurement": "SARS-CoV2 pseudovirus IC50", "setting": "[2]", "value": 39.7, "unit": "ng/mL"}, {"measurement": "PRNT50", "setting": "[3]", "value": 50.9, "unit": "ng/mL"}, {"measurement": "SARS-CoV2 pseudovirus IC50", "setting": "[3]", "value": 7.18, "unit": "ng/mL"}]}
